According to article PMC5717070:

Molecular target: Solanum tuberosum aspartic protease plant-specific insert (saposin-like domain), recombinant (Solanum tuberosum)
Assay: AUC; sedimentation equilibrium, 26-28 uM PSI, 27 mM sodium phosphate pH 3.0, 140 mM NaCl, 20 °C, single ideal species model; monomer to dimer

Solanum tuberosum aspartic protease plant-specific insert (saposin-like domain), recombinant (domain or fragment)
stoichiometry N: 2
